Consider one molecule from patent US20260184748A1 (University of Pennsylvania, published 2026).

Where no end group is shown, it is not given here.

Targets include HRH2 (UniProt P25021 1-359); MC5R (UniProt P33032 1-325); MCHR1 (UniProt Q99705 1-353); NPFFR1 (UniProt Q9GZQ6 1-430); OPRK1 (UniProt P41145 1-380); PTGER2 (UniProt P43116 1-358).
Holding throughout (assay): cell-based or functional assay
The target of the next test is T1, BRS3 (UniProt P32247 1-399).
T1 sequence (looked up): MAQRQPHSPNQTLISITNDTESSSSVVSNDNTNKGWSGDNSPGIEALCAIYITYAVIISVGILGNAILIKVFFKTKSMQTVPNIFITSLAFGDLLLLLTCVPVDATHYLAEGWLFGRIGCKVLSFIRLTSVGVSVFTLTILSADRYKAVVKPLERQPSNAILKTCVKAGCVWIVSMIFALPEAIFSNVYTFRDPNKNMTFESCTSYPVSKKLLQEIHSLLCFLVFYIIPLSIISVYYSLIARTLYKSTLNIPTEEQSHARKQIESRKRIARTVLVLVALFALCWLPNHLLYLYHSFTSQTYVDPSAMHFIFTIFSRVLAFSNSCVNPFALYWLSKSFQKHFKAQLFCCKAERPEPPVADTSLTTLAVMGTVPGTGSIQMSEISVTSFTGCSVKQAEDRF

The target of a further test is T2, CXCR2 (UniProt P25025 1-360).
T2 sequence (looked up): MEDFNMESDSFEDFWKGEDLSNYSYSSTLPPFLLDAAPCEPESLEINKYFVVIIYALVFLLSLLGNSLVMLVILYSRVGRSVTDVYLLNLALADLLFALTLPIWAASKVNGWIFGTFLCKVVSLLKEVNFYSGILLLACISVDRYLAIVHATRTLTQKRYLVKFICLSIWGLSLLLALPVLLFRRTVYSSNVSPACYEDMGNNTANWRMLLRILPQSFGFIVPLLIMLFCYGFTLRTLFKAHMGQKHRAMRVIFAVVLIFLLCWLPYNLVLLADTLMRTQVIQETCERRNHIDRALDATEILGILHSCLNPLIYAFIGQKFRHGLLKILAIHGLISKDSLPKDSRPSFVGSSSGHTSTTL

A further test deals with T3, ADRA2B (UniProt P18089 1-450).
T3 sequence (looked up): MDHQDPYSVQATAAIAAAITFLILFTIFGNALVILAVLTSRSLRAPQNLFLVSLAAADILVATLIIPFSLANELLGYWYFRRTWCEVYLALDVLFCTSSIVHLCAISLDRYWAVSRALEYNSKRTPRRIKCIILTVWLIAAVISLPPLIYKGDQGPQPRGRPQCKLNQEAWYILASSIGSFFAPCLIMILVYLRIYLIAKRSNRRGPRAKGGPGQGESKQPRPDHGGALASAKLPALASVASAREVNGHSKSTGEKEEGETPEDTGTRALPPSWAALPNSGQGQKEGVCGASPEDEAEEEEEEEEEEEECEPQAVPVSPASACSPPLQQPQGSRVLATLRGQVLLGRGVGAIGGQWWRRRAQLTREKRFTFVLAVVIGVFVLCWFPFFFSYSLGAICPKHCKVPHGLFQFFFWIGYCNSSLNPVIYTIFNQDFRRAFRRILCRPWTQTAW

The next test has as its target T4, FPR1 (UniProt P21462 1-350).
T4 sequence (looked up): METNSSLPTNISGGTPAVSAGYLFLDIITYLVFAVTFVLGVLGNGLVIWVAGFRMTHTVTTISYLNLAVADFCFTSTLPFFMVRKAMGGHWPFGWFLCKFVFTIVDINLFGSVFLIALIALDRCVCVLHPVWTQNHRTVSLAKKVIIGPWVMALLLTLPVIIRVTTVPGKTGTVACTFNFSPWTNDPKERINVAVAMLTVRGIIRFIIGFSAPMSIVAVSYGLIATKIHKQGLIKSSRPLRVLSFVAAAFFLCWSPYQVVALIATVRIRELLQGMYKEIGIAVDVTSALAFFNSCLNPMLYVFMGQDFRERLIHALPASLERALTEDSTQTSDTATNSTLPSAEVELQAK

The target in another test is T5, ADRA2C (UniProt P18825 1-462).
T5 sequence (looked up): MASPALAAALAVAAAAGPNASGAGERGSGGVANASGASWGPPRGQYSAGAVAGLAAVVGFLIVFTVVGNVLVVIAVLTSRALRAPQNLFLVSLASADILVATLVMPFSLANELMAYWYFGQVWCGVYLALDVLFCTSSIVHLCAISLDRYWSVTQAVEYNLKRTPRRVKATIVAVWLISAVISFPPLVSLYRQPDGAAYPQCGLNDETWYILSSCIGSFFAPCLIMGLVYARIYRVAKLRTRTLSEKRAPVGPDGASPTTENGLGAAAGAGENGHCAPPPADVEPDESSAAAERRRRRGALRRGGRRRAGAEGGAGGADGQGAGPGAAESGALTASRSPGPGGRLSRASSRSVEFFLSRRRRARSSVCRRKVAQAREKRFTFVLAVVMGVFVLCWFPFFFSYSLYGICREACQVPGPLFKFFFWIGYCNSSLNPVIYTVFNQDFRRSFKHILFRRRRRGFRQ

Another test has as its target T6, GPR1 (UniProt P46091 1-355).
T6 sequence (looked up): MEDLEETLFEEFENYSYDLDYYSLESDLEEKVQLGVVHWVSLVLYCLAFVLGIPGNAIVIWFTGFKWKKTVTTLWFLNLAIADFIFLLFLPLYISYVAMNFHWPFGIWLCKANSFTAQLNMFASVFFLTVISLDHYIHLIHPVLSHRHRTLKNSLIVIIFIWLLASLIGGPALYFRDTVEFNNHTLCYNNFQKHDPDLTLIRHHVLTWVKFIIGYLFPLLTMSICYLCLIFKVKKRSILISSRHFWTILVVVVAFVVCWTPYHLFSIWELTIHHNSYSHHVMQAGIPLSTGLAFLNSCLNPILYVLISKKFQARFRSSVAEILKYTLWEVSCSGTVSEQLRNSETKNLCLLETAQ

Chain of NPFFR1 (Q9GZQ6 whole entry): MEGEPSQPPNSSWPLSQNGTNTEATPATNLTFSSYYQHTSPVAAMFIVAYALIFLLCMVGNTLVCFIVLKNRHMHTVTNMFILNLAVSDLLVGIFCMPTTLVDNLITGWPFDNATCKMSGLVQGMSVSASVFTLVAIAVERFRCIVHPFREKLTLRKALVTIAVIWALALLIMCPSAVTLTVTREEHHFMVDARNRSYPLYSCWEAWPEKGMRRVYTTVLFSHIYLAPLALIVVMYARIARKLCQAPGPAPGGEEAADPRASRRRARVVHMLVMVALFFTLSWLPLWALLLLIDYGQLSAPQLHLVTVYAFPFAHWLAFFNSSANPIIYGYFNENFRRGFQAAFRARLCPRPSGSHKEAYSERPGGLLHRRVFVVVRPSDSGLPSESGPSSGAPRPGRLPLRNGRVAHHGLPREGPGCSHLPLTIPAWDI
Chain of PTGER2 (P43116 whole entry): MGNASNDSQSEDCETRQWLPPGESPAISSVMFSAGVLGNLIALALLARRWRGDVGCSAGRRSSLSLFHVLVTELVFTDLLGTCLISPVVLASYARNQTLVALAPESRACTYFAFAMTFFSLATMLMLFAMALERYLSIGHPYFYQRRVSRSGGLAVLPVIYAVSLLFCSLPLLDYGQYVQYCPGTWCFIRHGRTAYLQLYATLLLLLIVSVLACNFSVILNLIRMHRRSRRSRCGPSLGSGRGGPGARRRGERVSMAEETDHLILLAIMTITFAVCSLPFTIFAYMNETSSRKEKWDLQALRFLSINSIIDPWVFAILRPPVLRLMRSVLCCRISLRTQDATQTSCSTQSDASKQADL
Chain of MC5R (P33032 whole entry): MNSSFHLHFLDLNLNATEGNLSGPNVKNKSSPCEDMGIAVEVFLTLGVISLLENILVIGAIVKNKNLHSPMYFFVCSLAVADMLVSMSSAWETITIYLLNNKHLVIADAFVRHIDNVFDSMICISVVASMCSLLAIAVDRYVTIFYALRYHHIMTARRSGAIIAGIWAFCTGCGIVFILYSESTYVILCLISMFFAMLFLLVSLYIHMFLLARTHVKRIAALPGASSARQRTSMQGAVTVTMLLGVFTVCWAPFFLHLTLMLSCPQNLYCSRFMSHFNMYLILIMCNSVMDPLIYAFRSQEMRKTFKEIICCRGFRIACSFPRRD
Chain of OPRK1 (P41145 whole entry): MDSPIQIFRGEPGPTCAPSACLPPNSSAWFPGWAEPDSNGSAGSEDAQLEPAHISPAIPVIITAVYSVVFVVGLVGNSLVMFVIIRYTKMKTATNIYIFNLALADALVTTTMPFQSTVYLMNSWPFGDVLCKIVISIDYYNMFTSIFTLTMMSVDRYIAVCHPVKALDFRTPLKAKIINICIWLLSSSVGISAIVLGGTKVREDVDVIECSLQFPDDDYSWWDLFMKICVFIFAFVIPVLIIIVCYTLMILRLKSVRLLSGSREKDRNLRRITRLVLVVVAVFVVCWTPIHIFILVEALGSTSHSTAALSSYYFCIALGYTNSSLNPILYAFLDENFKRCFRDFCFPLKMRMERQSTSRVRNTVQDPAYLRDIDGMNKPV
Chain of MCHR1 (Q99705 whole entry): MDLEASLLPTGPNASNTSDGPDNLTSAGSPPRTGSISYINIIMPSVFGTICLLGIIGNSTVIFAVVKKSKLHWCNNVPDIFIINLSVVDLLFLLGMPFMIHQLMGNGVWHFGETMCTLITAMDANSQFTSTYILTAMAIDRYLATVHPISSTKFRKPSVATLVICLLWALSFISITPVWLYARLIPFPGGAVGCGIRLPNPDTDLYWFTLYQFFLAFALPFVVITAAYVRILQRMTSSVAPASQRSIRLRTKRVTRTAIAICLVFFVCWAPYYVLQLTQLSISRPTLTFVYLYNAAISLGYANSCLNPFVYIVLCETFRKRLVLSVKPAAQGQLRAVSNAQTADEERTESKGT
Chain of HRH2 (P25021 whole entry): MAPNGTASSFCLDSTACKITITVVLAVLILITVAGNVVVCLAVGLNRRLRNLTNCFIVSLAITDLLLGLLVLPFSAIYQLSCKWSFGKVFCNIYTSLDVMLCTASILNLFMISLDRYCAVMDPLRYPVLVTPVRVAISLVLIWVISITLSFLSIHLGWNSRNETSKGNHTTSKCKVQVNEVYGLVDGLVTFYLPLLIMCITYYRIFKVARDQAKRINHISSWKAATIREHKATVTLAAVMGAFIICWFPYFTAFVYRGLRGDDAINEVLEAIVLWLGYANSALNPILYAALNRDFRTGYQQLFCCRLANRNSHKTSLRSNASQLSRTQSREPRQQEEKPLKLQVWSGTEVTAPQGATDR

As to QATVGDVNTDRPGLLDLK (also: synthesised on Rink amide resin, C-terminal amide not given here outright) [octadecaneuropeptide (ODN)], the “% Activity, arrestin, antagonist mode, 2.5 uM” value was -13.3% with HRH2; 5.9% with MC5R; 5.1% with MCHR1; -4.2% with NPFFR1; -4.5% in the test with OPRK1; 2.1% with PTGER2. Besides, the “% Activity, arrestin, antagonist mode, 2.5 uM” value is -5.8% in the test with BRS3; -9.8% in the test with CXCR2; -36.8% with ADRA2B; -11.1% with FPR1; -26.4% with ADRA2C; -1.3% in the test with GPR1.
